One data set concerns Ramos cell surface target (unidentified; human B-cell leukemia cells). Put plainly: competition. The settings on record: competition with FITC-labeled monomer on target cells, flow cytometry. On the technique in general: A flow cytometer gives signals particle by particle.
“TAGGCAGTGGTTTGACGTCCGCATGTTGGGAATAGCCACGCCT / TAGGCAGTGGTTTGACGTCCGCATGTTGGGAATAGCCACGCCT [rigid dimer of SEQ 3 aptamer]” came in with an IC50 of 22.5 nM.

“TAGGCAGTGGTTTGACGTCCGCATGTTGGGAATAGCCACGCCT / TAGGCAGTGGTTTGACGTCCGCATGTTGGGAATAGCCACGCCT / TAGGCAGTGGTTTGACGTCCGCATGTTGGGAATAGCCACGCCT / TAGGCAGTGGTTTGACGTCCGCATGTTGGGAATAGCCACGCCT [rigid tetramer of SEQ 3 aptamer]” registered an IC50 of 11.6 nM.

With “TAGGCAGTGGTTTGACGTCCGCATGTTGGGAATAGCCACGCCT / TAGGCAGTGGTTTGACGTCCGCATGTTGGGAATAGCCACGCCT / TAGGCAGTGGTTTGACGTCCGCATGTTGGGAATAGCCACGCCT [flexible trimer of SEQ 3 aptamer]”, the IC50 came to 27.8 nM.

As for “TAGGCAGTGGTTTGACGTCCGCATGTTGGGAATAGCCACGCCT / TAGGCAGTGGTTTGACGTCCGCATGTTGGGAATAGCCACGCCT [flexible dimer of SEQ 3 aptamer]”, the IC50 was determined as 33 nM.

As for “TAGGCAGTGGTTTGACGTCCGCATGTTGGGAATAGCCACGCCT / TAGGCAGTGGTTTGACGTCCGCATGTTGGGAATAGCCACGCCT / TAGGCAGTGGTTTGACGTCCGCATGTTGGGAATAGCCACGCCT [rigid trimer of SEQ 3 aptamer]”, the IC50 was 20.8 nM.

Staying with this data set, now noted: unlabeled monomer vs FITC-labeled monomer on target cells, flow cytometry.
Turning to “TAGGCAGTGGTTTGACGTCCGCATGTTGGGAATAGCCACGCCT [Ramos-binding ssDNA aptamer monomer]”, the IC50 was determined as 400 nM.

As usually defined, the IC50 is the concentration needed to halve the response being measured.

Source of the values: patent US20110275702.
